Source: publication PMC3229523, “Identification of Lactoferricin B Intracellular Targets Using an Escherichia coli Proteome Chip” (PLoS ONE, 2011)
Ends that are not written are not given here. * marks the point of attachment. Biotin = O=C1N[C@H]2[C@H](CS[C@H]2CCCCC(=O)*)N1

Key:
Test in all cases: peptide or protein array; E. coli proteome chip: purified His-tagged proteins printed in duplicate on Fullmoon slides, blocked with 1% BSA; 10 nM N-terminal biotinylated LfcinB with 1% BSA, room temperature, 1 h; detected with DyLight 649-labeled streptavidin, ratio to DyLight 549-labeled anti-His antibody; ProCAT normalisation, local cut-off; triplicate chips
Conditions in all cases: both partners purified
AroD = molecular target: T1, AroD (E. coli K-12, UniProt P05194 1-252)
T1 construct: AroD, E. coli K-12
T1 sequence (looked up): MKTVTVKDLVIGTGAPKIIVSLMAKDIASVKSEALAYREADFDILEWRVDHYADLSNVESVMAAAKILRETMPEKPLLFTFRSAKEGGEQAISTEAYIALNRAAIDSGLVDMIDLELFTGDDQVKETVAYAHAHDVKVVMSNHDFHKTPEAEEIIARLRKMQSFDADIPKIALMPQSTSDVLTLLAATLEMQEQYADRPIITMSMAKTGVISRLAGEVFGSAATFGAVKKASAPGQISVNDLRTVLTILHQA

Adi = molecular target: T2, Adi (E. coli K-12, UniProt P28629 1-755)
T2 construct: Adi, E. coli K-12
T2 sequence (looked up): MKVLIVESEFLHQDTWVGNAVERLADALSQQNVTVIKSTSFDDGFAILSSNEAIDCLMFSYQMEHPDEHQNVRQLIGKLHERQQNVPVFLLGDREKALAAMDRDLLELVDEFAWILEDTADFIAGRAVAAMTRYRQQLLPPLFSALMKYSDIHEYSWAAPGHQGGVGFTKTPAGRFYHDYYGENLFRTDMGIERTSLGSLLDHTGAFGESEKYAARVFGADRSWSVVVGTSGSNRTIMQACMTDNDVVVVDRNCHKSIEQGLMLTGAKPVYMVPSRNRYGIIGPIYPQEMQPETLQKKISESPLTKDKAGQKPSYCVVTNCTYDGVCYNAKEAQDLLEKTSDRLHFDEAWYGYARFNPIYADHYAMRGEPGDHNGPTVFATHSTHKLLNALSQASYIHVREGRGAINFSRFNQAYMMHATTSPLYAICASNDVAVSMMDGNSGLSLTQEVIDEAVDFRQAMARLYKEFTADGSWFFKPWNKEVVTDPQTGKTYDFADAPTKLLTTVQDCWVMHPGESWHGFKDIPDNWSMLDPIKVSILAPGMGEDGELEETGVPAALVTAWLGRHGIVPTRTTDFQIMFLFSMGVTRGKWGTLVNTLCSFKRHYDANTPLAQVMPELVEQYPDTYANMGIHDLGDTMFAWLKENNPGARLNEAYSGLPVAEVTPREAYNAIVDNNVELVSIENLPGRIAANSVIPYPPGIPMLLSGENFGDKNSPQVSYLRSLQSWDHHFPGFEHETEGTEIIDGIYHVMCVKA

AmiA = molecular target: T3, AmiA (E. coli K-12, UniProt P36548 35-289)
T3 construct: AmiA, E. coli K-12
T3 sequence (looked up): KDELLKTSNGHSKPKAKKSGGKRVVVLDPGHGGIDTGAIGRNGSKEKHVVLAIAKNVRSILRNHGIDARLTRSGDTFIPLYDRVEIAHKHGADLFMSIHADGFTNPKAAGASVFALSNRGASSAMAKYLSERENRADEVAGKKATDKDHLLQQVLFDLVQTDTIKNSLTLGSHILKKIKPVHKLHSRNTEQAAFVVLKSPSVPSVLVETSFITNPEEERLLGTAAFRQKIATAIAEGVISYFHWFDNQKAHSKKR

YgfJ = molecular target: T4, YgfJ (E. coli K-12, UniProt Q46810 1-192)
T4 construct: YgfJ, E. coli K-12
T4 sequence (looked up): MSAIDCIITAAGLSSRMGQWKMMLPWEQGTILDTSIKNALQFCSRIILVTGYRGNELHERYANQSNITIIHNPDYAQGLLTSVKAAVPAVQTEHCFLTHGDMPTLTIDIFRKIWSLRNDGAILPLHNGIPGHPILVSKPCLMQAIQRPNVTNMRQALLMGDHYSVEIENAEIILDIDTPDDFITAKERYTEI

YjdI = molecular target: T5, YjdI (E. coli K-12, UniProt P0AF59 1-76)
T5 construct: YjdI, E. coli K-12
T5 sequence (looked up): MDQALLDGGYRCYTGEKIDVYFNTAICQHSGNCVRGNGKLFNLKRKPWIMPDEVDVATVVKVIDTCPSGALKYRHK

Rob = molecular target: T6, Rob (E. coli K-12, UniProt P0ACI0 1-289)
T6 construct: Rob, E. coli K-12
T6 sequence (looked up): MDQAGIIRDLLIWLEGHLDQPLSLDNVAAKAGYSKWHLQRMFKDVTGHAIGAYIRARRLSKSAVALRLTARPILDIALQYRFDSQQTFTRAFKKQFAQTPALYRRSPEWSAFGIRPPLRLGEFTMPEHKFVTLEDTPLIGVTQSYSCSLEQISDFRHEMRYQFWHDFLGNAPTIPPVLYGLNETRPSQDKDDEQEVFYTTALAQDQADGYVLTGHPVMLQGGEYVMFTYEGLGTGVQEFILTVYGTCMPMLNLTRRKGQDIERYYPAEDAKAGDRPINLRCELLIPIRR

Measured: binding result

B1: N-terminal biotinylated Lactoferricin B (peptide, UniProt P24627 36-60, looked up)
peptide: Biotin-FKCRRWQWRMKKLGAPSITCVRRAF
modifications: ends and bridges not checked
notes: lactoferricin B (LfcinB), cationic antimicrobial peptide of 25 amino acids; also called biotinylated LfcinB; biotin-labeled LfcinB; source: bought: Kelowna Inc
binds: AroD | Adi | AmiA | YgfJ | YjdI | Rob
